Positions count from the first letter of the chain named. Blank lines part the entries; values can stand above or below the binder they belong to.
Biological target: T1, labeled peptide-MHC (HLA-A*02:01) tetramer (…-HLA-A*02:01 tetramer) (human)
T1 construct: Labeled tetramer used for flow cytometry staining; also called pMHC; pMHC tetramer
Experiment: tetramer staining of sorted T cell clones, flow cytometry

B1: nwTCR-2916 (TCR, V domains shown)
V domain 1: GQQLNQSPQSMFIQEGEDVSMNCTSSSIFNTWLWYKQDPGEGPVLLIALYKAGELTSNGRLTAQFGITRKDSFLNISASIPSDVGIYFCAGQDDGGSQGNLIFGKGTKLSVKP
V domain 2: DSGVTQTPKHLITATGQRVTLRCSPRSGDLSVYWYQQSLDQGLQFLIQYYNGEERAKGNILERFSAQQFPDLHSELNLSSLELGDSALYFCASSPWTSGGDGELFFGEGSRLTVLE
notes: TCR on T cells
binding result: binds

B2: nwTCR-3095 (TCR, V domains shown)
V domain 1: DQQVKQNSPSLSVQEGRISILNCDYTNSMFDYFLWYKKYPAEGPTFLISISSIKDKNEDGRFTVFLNKSAKHLSLHIVPSQPGDSAVYFCAAFASDSNYQLIWGAGTKLIIKP
V domain 2: DTAVSQTPKYLVTQMGNDKSIKCEQNLGHDTMYWYKQDSKKFLKIMFSYNNKELIINETVPNRFSPKSPDKAHLNLHINSLELGDSAVYFCASSPWTSGGNGELFFGEGSRLTVLE
notes: TCR on T cells
binding result: binds

B4: nwTCR-2523 (TCR, V domains shown)
V domain 1: RKEVEQDPGPFNVPEGATVAFNCTYSNSASQSFFWYRQDCRKEPKLLMSVYSSGNEDGRFTAQLNRASQYISLLIRDSKLSDSATYLCVVNRGSQGNLIFGKGTKLSVKP
V domain 2: DAGVTQSPTHLIKTRGQQVTLRCSPKSGHDTVSWYQQALGQGPQFIFQYYEEEERQRGNFPDRFSGHQFPNYSSELNVNALLLGDSALYLCASSLVDYEQYFGPGTRLTVTE
notes: TCR on T cells
binding result: binds

B5: nwTCR-3028 (TCR, V domains shown)
V domain 1: SQQGEEDPQALSIQEGENATMNCSYKTSINNLQWYRQNSGRGLVHLILIRSNEREKHSGRLRVTLDTSKKSSSLLITASRAADTASYFCATDVKSSYKLIFGSGTRLLVRP
V domain 2: AAGVIQSPRHLIKEKRETATLKCYPIPRHDTVYWYQQGPGQDPQFLISFYEKMQSDKGSIPDRFSAQQFSDYHSELNMSSLELGDSALYFCASSLGLLGNEQFFGPGTRLTVLE
notes: TCR on T cells
binding result: binds

B11: nwTCR-2719 (TCR, V domains shown)
V domain 1: GIQVEQSPPDLILQEGANSTLRCNFSDSVNNLQWFHQNPWGQLINLFYIPSGTKQNGRLSATTVATERYSLLYISSSQTTDSGVYFCAVLAPGTYKYIFGTGTRLKVLA
V domain 2: EAQVTQNPRYLITVTGKKLTVTCSQNMNHEYMSWYRQDPGLGLRQIYYSMNVEVTDKGDVPEGYKVSRKEKRNFPLILESPSPNQTSLYFCASSWGSGYEQYFGPGTRLTVTE
notes: TCR on T cells
binding result: binds

B12: nwTCR-1906 (TCR, V domains shown)
V domain 1: RKEVEQDPGPFNVPEGATVAFNCTYSNSASQSFFWYRQDCRKEPKLLMSVYSSGNEDGRFTAQLNRASQYISLLIRDSKLSDSATYLCVVTQAGTALIFGKGTTLSVSS
V domain 2: not shown
notes: TCR on T cells
binding result: binds

B13: nwTCR-2383 (TCR, V domains shown)
V domain 1: B11 V domain 1 with L90M, A91P, P92S
V domain 2: EAQVTQNPRYLITVTGKKLTVTCSQNMNHEYMSWYRQDPGLGLRQIYYSMNVEVTDKGDVPEGYKVSRKEKRNFPLILESPSPNQTSLYFCASSPSSGYNEQFFGPGTRLTVLE
notes: TCR on T cells
binding result: binds

B14: nwTCR-2720 (TCR, V domains shown)
V domain 1: SQQGEEDPQALSIQEGENATMNCSYKTSINNLQWYRQNSGRGLVHLILIRSNEREKHSGRLRVTLDTSKKSSSLLITASRAADTASYFCATDLSGAGSYQLTFGKGTKLSVIP
V domain 2: B13 V domain 2 with P95L, S96G, S97T, Y99F, N100G, Q102L, P106E, T108S
notes: TCR on T cells
binding result: binds

B18: nwTCR-2286 (TCR, V domains shown)
V domain 1: GQQLNQSPQSMFIQEGEDVSMNCTSSSIFNTWLWYKQDPGEGPVLLIALYKAGELTSNGRLTAQFGITRKDSFLNISASIPSDVGIYFCAGPEDDKIIFGKGTRLHILP
V domain 2: DSGVTQTPKHLITATGQRVTLRCSPRSGDLSVYWYQQSLDQGLQFLIQYYNGEERAKGNILERFSAQQFPDLHSELNLSSLELGDSALYFCASSPWLQGGNEQFFGPGTRLTVLE
notes: TCR on T cells
binding result: binds

B20: nwTCR-2718 (TCR, V domains shown)
V domain 1: GQQLNQSPQSMFIQEGEDVSMNCTSSSIFNTWLWYKQDPGEGPVLLIALYKAGELTSNGRLTAQFGITRKDSFLNISASIPSDVGIYFCAGFSQGGSEKLVFGKGTKLTVNP
V domain 2: B18 V domain 2 with L97T, Q98A, E102T, Q103I, F104Y, P107E, T109S, R110W, L114V
notes: TCR on T cells
binding result: binds

B21: nwTCR-2316 (TCR, V domains shown)
V domain 1: TQLLEQSPQFLSIQEGENLTVYCNSSSVFSSLQWYRQEPGEGPVLLVTVVTGGEVKKLKRLTFQFGDARKDSSLHITAAQPGDTGLYLCAGVDNYGQNFVFGPGTRLSVLP
V domain 2: DAGVIQSPRHEVTEMGQEVTLRCKPISGHNSLFWYRQTMMRGLELLIYFNNNVPIDDSGMPEDRFSAKMPNASFSTLKIQPSEPRDSAVYFCASSIAALGFGELFFGEGSRLTVLE
notes: TCR on T cells
binding result: binds

B22: nwTCR-2555 (TCR, V domains shown)
V domain 1: AQSVSQHNHHVILSEAASLELGCNYSYGGTVNLFWYVQYPGQHLQLLLKYFSGDPLVKGIKGFEAEFIKSKFSFNLRKPSVQWSDTAEYFCAVKMDSSYKLIFGSGTRLLVRP
V domain 2: DGGITQSPKYLFRKEGQNVTLSCEQNLNHDAMYWYRQDPGQGLRLIYYSQIVNDFQKGDIAEGYSVSREKKESFPLTVTSAQKNPTAFYLCASLGLNYNEQFFGPGTRLTVLE
notes: TCR on T cells
binding result: binds

Results, then the binder that gave them:

binding result: binds
B3: nwTCR-2583 (TCR, V domains shown)
V domain 1: GQSLEQPSEVTAVEGAIVQINCTYQTSGFYGLSWYQQHDGGAPTFLSYNALDGLEETGRFSSFLSRSDSYGYLLLQELQMKDSASYFCALGTEDKIIFGKGTRLHILP
V domain 2: EAQVTQNPRYLITVTGKKLTVTCSQNMNHEYMSWYRQDPGLGLRQIYYSMNVEVTDKGDVPEGYKVSRKEKRNFPLILESPSPNQTSLYFCASRISLGANYGYTFGSGTRLTVVE
notes: TCR on T cells

binding result: binds
B6: nwTCR-2228 (TCR, V domains shown)
V domain 1: QKEVEQNSGPLSVPEGAIASLNCTYSDRGSQSFFWYRQYSGKSPELIMFIYSNGDKEDGRFTAQLNKASQYVSLLIRDSQPSDSATYLCAGHTGNQFYFGTGTSLTVIP
V domain 2: EPEVTQTPSHQVTQMGQEVILRCVPISNHLYFYWYRQILGQKVEFLVSFYNNEISEKSEIFDDQFSVERPDGSNFTLKIRSTKLEDSAMYFCASREDGYEQYFGPGTRLTVTE
notes: TCR on T cells

binding result: binds
B7: nwTCR-2170 (TCR, V domains shown)
V domain 1: GQQLNQSPQSMFIQEGEDVSMNCTSSSIFNTWLWYKQDPGEGPVLLIALYKAGELTSNGRLTAQFGITRKDSFLNISASIPSDVGIYFCAGQASGTYKYIFGTGTRLKVLA
V domain 2: B11 V domain 2 with W95S, S97T, G98S, Y99D
notes: TCR on T cells

binding result: binds
B8: nwTCR-2915 (TCR, V domains shown)
V domain 1: GESVGLHLPTLSVQEGDNSIINCAYSNSASDYFIWYKQESGKGPQFIIDIRSNMDKRQGQRVTVLLNKTVKHLSLQIAATQPGDSAVYFCAESYGQKLLFARGTMLKVDL
V domain 2: B11 V domain 2 with W95F, G96W, G98A, Y99G, Q101L, Y102F, P105E, T107S, T112L
notes: TCR on T cells

binding result: binds
B9: nwTCR-2285 (TCR, V domains shown)
V domain 1: KNEVEQSPQNLTAQEGEFITINCSYSVGISALHWLQQHPGGGIVSLFMLSSGKKKHGRLIATINIQEKHSSLHITASHPRDSAVYICALNSDSNYQLIWGAGTKLIIKP
V domain 2: B11 V domain 2 with S93T, W95P, S97T, G98L
notes: TCR on T cells

binding result: binds
B10: nwTCR-2793 (TCR, V domains shown)
V domain 1: QKEVEQNSGPLSVPEGAIASLNCTYSDRVSQSFFWYRQYSGKSPELIMSIYSNGDKEDGRFTAQLNKASQYVSLLIRDSQPSDSATYLCAVVSSNDYKLSFGAGTTVTVRA
V domain 2: B11 V domain 2 with W95P, S97T, G98I, Y99G, Q101L, Y102F, P105E, T107S, T112L
notes: TCR on T cells

binding result: binds
B15: nwTCR-2970 (TCR, V domains shown)
V domain 1: QQPVQSPQAVILREGEDAVINCSSSKALYSVHWYRQKHGEAPVFLMILLKGGEQKGHDKISASFNEKKQQSSLYLTASQLSYSGTYFCGTEFRNDYKLSFGAGTTVTVRA
V domain 2: B13 V domain 2 with S96G, S97T, Y99G, N100Y, E101G, Q102Y, F103T, P106S, L113V
notes: TCR on T cells

binding result: binds
B16: nwTCR-1953 (TCR, V domains shown)
V domain 1: DAKTTQPNSMESNEEEPVHLPCNHSTISGTDYIHWYRQLPSQGPEYVIHGLTSNVNNRMASLAIAEDRKSSTLILHRATLRDAAVYYCILRAGGSGDKLTFGTGTRLAVRP
V domain 2: DTEVTQTPKHLVMGMTNKKSLKCEQHMGHRAMYWYKQKAKKPPELMFVYSYEKLSINESVPSRFSPECPNSSLLNLHLHALQPEDSALYLCASSQDPFWGAGELFFGEGSRLTVLE
notes: TCR on T cells

binding result: binds
B17: nwTCR-3125 (TCR, V domains shown)
V domain 1: QKEVEQNSGPLSVPEGAIASLNCTYSDRVSQSFFWYRQYSGKSPELIMSIYSNGDKEDGRFTAQLNKASQYVSLLIRDSQPSDSATYLCALVSGTYKYIFGTGTRLKVLA
V domain 2: DTAVSQTPKYLVTQMGNDKSIKCEQNLGHDTMYWYKQDSKKFLKIMFSYNNKELIINETVPNRFSPKSPDKAHLNLHINSLELGDSAVYFCASSPGLAYEQYFGPGTRLTVTE
notes: TCR on T cells

binding result: binds
B19: nwTCR-2418 (TCR, V domains shown)
V domain 1: DQQVKQNSPSLSVQEGRISILNCDYTNSMFDYFLWYKKYPAEGPTFLISISSIKDKNEDGRFTVFLNKSAKHLSLHIVPSQPGDSAVYFCAASGVRGQNFVFGPGTRLSVLP
V domain 2: B18 V domain 2 with Q98A, N101R, F104Y, L114T
notes: TCR on T cells
